According to paper PMC3983218:

Target: T1, MtuSSB (Mycobacterium tuberculosis, UniProt P9WGD5)
T1 sequence: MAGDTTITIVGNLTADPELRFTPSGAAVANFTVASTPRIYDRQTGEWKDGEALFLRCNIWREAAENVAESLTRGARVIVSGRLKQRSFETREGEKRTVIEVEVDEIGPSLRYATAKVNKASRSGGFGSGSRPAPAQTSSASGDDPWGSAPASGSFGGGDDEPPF
Assay: EMSA; 20 mM Tris-HCl pH 8.0, 50 mM NaCl, 5% glycerol, 50 μg/ml BSA, 15 μl, 30 min at 4°C; […]
Details: protein: recombinant; chain copies: 4; label: 5' 32P; single strand

B1: 79 mer ssDNA (ssDNA)
DNA: GCACTAGTGCGGATAGCCCCGTGTTGTTGTCTGACCCCCGACCCCGACGGCAATGCGGGGCAATCCCCTGGAGGCCTGC
B1: binds.
